In the supplement of paper PMC10567573:
± gives the standard deviation.

Assay: protein stability index of a GFP-peptide fusion (GPS, HEK-293T) (PSI 1-6); higher = more stable
Conditions: c terminus: a fixed tail appended
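Note: 24-mer peptide tiles fused after GFP, lentivirally expressed, FACS-sorted into six equal bins by GFP/DsRed ratio, decoded by Illumina sequencing, PSI is the read-weighted mean bin number.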

Sequence: GFIRFDKRIEAEEAIKGLNGQKPL [ELAVL3]
- protein stability index (treatment: DMSO): 3.66 ± 0.42
- protein stability index (treatment: MLN4924 1 uM, 8 h): 4.08 ± 0.49

Sequence: SVILRRYFLELTQSFIIPLERYVA [DENND6A]
- protein stability index (treatment: DMSO): 2.33 ± 0.63
- protein stability index (treatment: MLN4924 1 uM, 8 h): 2.88 ± 0.75

Sequence: PTHQAHTVGFLDEAIQPYRDRLRS [TRIM15]
- protein stability index (treatment: DMSO): 4.52 ± 0.039
- protein stability index (treatment: MLN4924 1 uM, 8 h): 4.44 ± 0.13

Sequence: PSPVRAPAPSPAKEERKTEVVMNS [PALM]
- protein stability index (treatment: DMSO): 5.35 ± 0.36
- protein stability index (treatment: MLN4924 1 uM, 8 h): 5.53 ± 0.13

Sequence: ATKITLSAIYKWITDNFCYFRHAD [FOXJ1]
- protein stability index (treatment: DMSO): 3 ± 0.21
- protein stability index (treatment: MLN4924 1 uM, 8 h): 2.77 ± 0.49

Sequence: LPCDLPKVVSRAENLSVPVIGALL [LPCAT4]
- protein stability index (treatment: DMSO): 2.29 ± 0.37
- protein stability index (treatment: MLN4924 1 uM, 8 h): 2.27 ± 0.31

Sequence: PGGGRLLLSTSLDAKDELEERLER [INTS3]
- protein stability index (treatment: DMSO): 4.94 ± 0.3
- protein stability index (treatment: MLN4924 1 uM, 8 h): 4.84 ± 0.15

Sequence: AGAFGYFQQDTKGLVDFRDVALAL [LPCAT4]
- protein stability index (treatment: DMSO): 1.98 ± 0.18
- protein stability index (treatment: MLN4924 1 uM, 8 h): 2.12 ± 0.18

Sequence: YYHRRNEMTTTDDLDFKHHNYKEM [CPXM2]
- protein stability index (treatment: DMSO): 3.22 ± 0.33
- protein stability index (treatment: MLN4924 1 uM, 8 h): 3.35 ± 0.25

Sequence: EAPQWLESDSCQKCEQPFFWNIKQ [WDFY1]
- protein stability index (treatment: DMSO): 3.32 ± 0.7
- protein stability index (treatment: MLN4924 1 uM, 8 h): 3.48 ± 0.38

Sequence: RYTFAPSVSLNKTARPFGAPPPAD [PDLIM7]
- protein stability index (treatment: DMSO): 3.34 ± 0.2
- protein stability index (treatment: MLN4924 1 uM, 8 h): 3.55 ± 0.21

Sequence: HCMLVSNRVSWWGSTLAMLQRLKE [ZBED1]
- protein stability index (treatment: DMSO): 3.29 ± 0.18
- protein stability index (treatment: MLN4924 1 uM, 8 h): 3.46 ± 0.37

Sequence: PLDVVKVRLQSQRPSMASELMPSS [SLC25A39]
- protein stability index (treatment: DMSO): 3.65 ± 0.34
- protein stability index (treatment: MLN4924 1 uM, 8 h): 3.59 ± 0.36

Sequence: SRSRSRSRSRSRSRSNSRSRSYSP [SRSF1]
- protein stability index (treatment: DMSO): 5.52 ± 0.33
- protein stability index (treatment: MLN4924 1 uM, 8 h): 5.56 ± 0.28

Sequence: NVNETDDWGRTALHYAAASDMDRN [ANKRD44]
- protein stability index (treatment: DMSO): 4.69 ± 0.15
- protein stability index (treatment: MLN4924 1 uM, 8 h): 4.77 ± 0.33

Sequence: EQIAERKRKMVSWEASSLGLVTAA [KMT2E]
- protein stability index (treatment: DMSO): 2.65 ± 0.45
- protein stability index (treatment: MLN4924 1 uM, 8 h): 3.33 ± 0.76

Sequence: SGSGNGSSTLNPSTSSSTQGDPAF [NOL4L]
- protein stability index (treatment: DMSO): 5.04 ± 0.34
- protein stability index (treatment: MLN4924 1 uM, 8 h): 5.07 ± 0.17

Sequence: SPLAADPACLGQPHTPGKPTSSCT [FOXJ1]
- protein stability index (treatment: DMSO): 4.95 ± 0.17
- protein stability index (treatment: MLN4924 1 uM, 8 h): 4.89 ± 0.2

Sequence: AWQYGPCTGITRLQRWCRAKHMGL [POLD4]
- protein stability index (treatment: DMSO): 2.15 ± 0.12
- protein stability index (treatment: MLN4924 1 uM, 8 h): 2.3 ± 0.42

Sequence: RLLVGLALATLRVLRGLARPEHPP [TMEM175]
- protein stability index (treatment: DMSO): 2.02 ± 0.42
- protein stability index (treatment: MLN4924 1 uM, 8 h): 2.35 ± 0.43

Sequence: VVCQPNEFIMPDSAVVGDVLVLTK [SEPHS2]
- protein stability index (treatment: DMSO): 2.35 ± 0.19
- protein stability index (treatment: MLN4924 1 uM, 8 h): 2.56 ± 0.36

Sequence: KINVNEIFYDLVRQINRKTPVPGK [RAP1B]
- protein stability index (treatment: DMSO): 2.44 ± 0.4
- protein stability index (treatment: MLN4924 1 uM, 8 h): 2.25 ± 0.26

Sequence: SLSNGQGSRVLHVVQTLYPFSSVT [NCK2]
- protein stability index (treatment: DMSO): 2.01 ± 0.18
- protein stability index (treatment: MLN4924 1 uM, 8 h): 2.14 ± 0.21

Sequence: SAPGACEEPTERGNLEVGEPQSEP [FBXO34]
- protein stability index (treatment: DMSO): 5.67 ± 0.27
- protein stability index (treatment: MLN4924 1 uM, 8 h): 5.7 ± 0.17

Sequence: PDAPDHTSETSHSPLYADPYTPPA [PLEKHN1]
- protein stability index (treatment: DMSO): 5.22 ± 0.3
- protein stability index (treatment: MLN4924 1 uM, 8 h): 5.01 ± 0.28

Sequence: HQRIHTGEKPYECVQCGKSYSQSS [ZNF24]
- protein stability index (treatment: DMSO): 3.79 ± 0.4
- protein stability index (treatment: MLN4924 1 uM, 8 h): 3.92 ± 0.28

Sequence: LQRLSHSGSRVRVGFRLCNSTGGD [SCNN1D]
- protein stability index (treatment: DMSO): 3.14 ± 0.22
- protein stability index (treatment: MLN4924 1 uM, 8 h): 3.11 ± 0.18

Sequence: FLRQKVLSLPLPDPLKYYLLYYRE [PCMTD2]
- protein stability index (treatment: DMSO): 2.24 ± 0.34
- protein stability index (treatment: MLN4924 1 uM, 8 h): 2.26 ± 0.31

Sequence: ASASCSHWRECLFYPALWPQLRIC [FBXO33]
- protein stability index (treatment: DMSO): 2.44 ± 0.53
- protein stability index (treatment: MLN4924 1 uM, 8 h): 2.23 ± 0.39

Sequence: EQLFFVRLVGKTPIETLIRDMLLS [NR2F2]
- protein stability index (treatment: DMSO): 2.56 ± 0.47
- protein stability index (treatment: MLN4924 1 uM, 8 h): 2.42 ± 0.61

Sequence: DLSHIEGLSQAPQPLADEGPPGRS [SERTAD1]
- protein stability index (treatment: DMSO): 5.11 ± 0.31
- protein stability index (treatment: MLN4924 1 uM, 8 h): 5.14 ± 0.36

Sequence: PFSSHTYSQASELPTDAVDCMSRE [FBXO34]
- protein stability index (treatment: DMSO): 5.25 ± 0.29
- protein stability index (treatment: MLN4924 1 uM, 8 h): 5.01 ± 0.075
